Experiments:
[1] = molecular target: T1, Fc fusion of the human GFRα1 extracellular domain (GFRα1:Fc fusion protein) (human, UniProt P56159 25-429, limits assumed); experiment: ELISA on captured GFRα1:Fc (format of FIG. 33), run with the CHO-derived fusion protein
T1 construct: extracellular domain; Bought (R&D Systems), captured on plates by a mouse anti-human IgG; also called GFRα1 ECD; GFRal; not shown: Fc part of the bought fusion, captured by a mouse anti-human Fc antibody
T1 sequence (looked up): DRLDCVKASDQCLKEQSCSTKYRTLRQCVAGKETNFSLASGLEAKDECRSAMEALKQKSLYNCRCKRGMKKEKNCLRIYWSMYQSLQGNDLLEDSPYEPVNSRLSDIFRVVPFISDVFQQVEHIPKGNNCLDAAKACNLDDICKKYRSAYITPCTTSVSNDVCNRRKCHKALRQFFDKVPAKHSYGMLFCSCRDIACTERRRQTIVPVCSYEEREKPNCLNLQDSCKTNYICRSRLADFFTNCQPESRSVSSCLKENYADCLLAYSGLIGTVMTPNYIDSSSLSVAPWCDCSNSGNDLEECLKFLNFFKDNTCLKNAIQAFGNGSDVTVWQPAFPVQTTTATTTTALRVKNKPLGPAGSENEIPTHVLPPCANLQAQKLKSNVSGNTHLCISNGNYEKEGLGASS

[2] = molecular target: T1, Fc fusion of the human GFRα1 …; experiment: ELISA on GFRα1:Fc captured by mouse anti-human IgG, detection with goat anti-GDNF antibody
[3] = molecular target: T2, human insulin receptor extracellular domain (HIR ECD) (human, UniProt P06213 28-956, limits assumed); experiment: competitive ligand binding assay: displacement of [125I] murine HIRMAb from plated HIR ECD; Scatchard analysis, high affinity site, nonlinear regression
T2 construct: extracellular domain

[4] = molecular target: T2, human insulin receptor extracellular …; experiment: ELISA on plated HIR ECD, COS cell-derived protein, detection with biotinylated goat anti-human IgG; non-linear regression
[5] = molecular target: T1, Fc fusion of the human GFRα1 …; experiment: ELISA on GFRα1:Fc captured by mouse anti-human Fc antibody, detection with goat anti-GDNF antibody

B1: recombinant human GDNF (ligand)
chain: SPDKQMAVLPRRERNRQAAAANPENSRGKGRRGQRGKNRGCVLTAIHLNVTDLGLGYETKEELIFRYCSGSCDAAETTYDKILKNLSRNRRLVSDKVGQACCRPIAFDDDLSFLDDNLVYHILRKHSAKRCGCI
notes: Bought (Peprotech); also called recombinant GDNF
**Q.** Which EC50 [1] does the source give for B1 here?
**A.** 1 nM

**Q.** What about the EC50 [2] of the same binder?
**A.** 1.03 nM

B2: chimeric HIRMAb (Examples 3 and 4) (antibody, human IgG1, kappa)
heavy: not shown
light: DIQMTQSPSSLSASLGERVSLTCRASQDIGGNLYWLQQGPDGTIKRLIYATSSLDSGVPKRFSGSRSGSDYSLTISSLESEDFVDYYCLQYSSSPWTFGGATKMEIKRTVAAPSVFIFPPSDEQLKSGTASVVCLLNNFYPREAKVQWKVDNALQSGNSQESVTEQDSKDSTYSLSSTLTLSKADYEKHKVYACEVTHQGLSSPVTKSFNRGEC
notes: also called chimeric form of the HIRMAb; product of clone 400
**Q.** With B2 as the binder, how does the Ki [3] read?
**A.** 0.63 nM

B3: chimeric HIRMAb (Examples 15 and 16) (antibody, human IgG1, kappa, V domains shown)
VH: QVQLQQSGPELVKPGALVKISCKASGYTFTNYDIHWVKQRPGQGLEWIGWIYPGDGSTKYNEKFKGKATLTADKSSSTAYMHLSSLTSEKSAVYFCAREWAYWGQGTLVTVSA
VL: DIQMTQSPSSLSASLGERVSLTCRASQDIGGNLYWLQQGPDGTIKRLIYATSSLDSGVPKRFSGSRSGSDYSLTISSLESEDFVDYYCLQYSSSPWTFGGGTKMEIKR
notes: also called COS cell-derived chimeric HIRMAb; CHO-derived HIRMAb
**Q.** With B3 as the binder, how does the EC50 [4] read?
**A.** 0.5 nM

**Q.** Does B3 bind [5]?
**A.** no binding
